What all share (test): FRET or BRET; 25 nM donor (AF555)-labelled octamers titrated with acceptor (AF647)-labelled octamers, serial dilutions from 100 nM; 45 mM KCl, 50 mM Tris-HCl pH 8.0; room temperature, 1 h equilibration; triplicate; PCA and curve fit; apparent Kd of end-to-end association of rods
For experiment [1], the target named is Shs1(E344C ΔCTE)-capped, otherwise Cys-less septin hetero-octamer (S. cerevisiae) (UniProt Q07657).
Experiment [2] has as its target Shs1(E344C)-capped, otherwise Cys-less septin hetero-octamer (Shs1-Cdc12-Cdc3-Cdc10-Cdc10-Cdc3-Cdc12-Shs1) (S. cerevisiae) (UniProt Q07657).
The target in experiment [3] is Cdc11(E294C)-capped, otherwise Cys-less septin hetero-octamer (Cdc11-Cdc12-Cdc3-Cdc10-Cdc10-Cdc3-Cdc12-Cdc11) (S. cerevisiae) (UniProt P32458).
Experiment [4] addresses Cdc11(E294C ΔCTE)-capped, otherwise Cys-less septin hetero-octamer (S. cerevisiae) (UniProt P32458).

Chain of Cdc11(E294C)-capped, otherwise Cys-less septin hetero-octamer (Cdc11-Cdc12-Cdc3-Cdc10-Cdc10-Cdc3-Cdc12-Cdc11) (S. cerevisiae) (P32458 whole entry C43F/C137A/C138A/E294C, chain 1 of 4): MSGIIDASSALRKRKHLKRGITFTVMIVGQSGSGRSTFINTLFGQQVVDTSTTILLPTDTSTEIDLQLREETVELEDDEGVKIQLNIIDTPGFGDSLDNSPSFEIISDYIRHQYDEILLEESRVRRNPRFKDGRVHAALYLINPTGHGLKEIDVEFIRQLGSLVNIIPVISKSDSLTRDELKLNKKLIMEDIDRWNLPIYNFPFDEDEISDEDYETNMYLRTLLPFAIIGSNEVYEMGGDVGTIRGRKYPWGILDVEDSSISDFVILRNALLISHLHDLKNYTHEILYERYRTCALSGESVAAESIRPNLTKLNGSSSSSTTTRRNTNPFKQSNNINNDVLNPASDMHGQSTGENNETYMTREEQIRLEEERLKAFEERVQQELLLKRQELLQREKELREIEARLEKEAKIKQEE
Chain of Cdc11(E294C)-capped, otherwise Cys-less septin hetero-octamer (Cdc11-Cdc12-Cdc3-Cdc10-Cdc10-Cdc3-Cdc12-Cdc11) (S. cerevisiae) (P32468 whole entry C40A/C278S, chain 2 of 4, further chain): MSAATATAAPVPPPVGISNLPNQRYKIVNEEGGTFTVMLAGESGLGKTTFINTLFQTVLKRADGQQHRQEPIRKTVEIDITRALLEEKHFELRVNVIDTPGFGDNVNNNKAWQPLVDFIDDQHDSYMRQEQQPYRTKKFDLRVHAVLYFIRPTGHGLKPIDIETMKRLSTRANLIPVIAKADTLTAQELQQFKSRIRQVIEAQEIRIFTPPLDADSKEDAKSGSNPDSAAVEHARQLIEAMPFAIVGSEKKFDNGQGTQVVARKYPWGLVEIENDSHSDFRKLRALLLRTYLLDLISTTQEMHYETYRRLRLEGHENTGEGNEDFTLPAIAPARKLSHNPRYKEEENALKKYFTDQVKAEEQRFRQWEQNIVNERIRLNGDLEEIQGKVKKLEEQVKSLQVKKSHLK
Chain of Cdc11(E294C)-capped, otherwise Cys-less septin hetero-octamer (Cdc11-Cdc12-Cdc3-Cdc10-Cdc10-Cdc3-Cdc12-Cdc11) (S. cerevisiae) (P32457 other isoform, or with tags, fused parts or gaps E294C, chain 3 of 4, further chain): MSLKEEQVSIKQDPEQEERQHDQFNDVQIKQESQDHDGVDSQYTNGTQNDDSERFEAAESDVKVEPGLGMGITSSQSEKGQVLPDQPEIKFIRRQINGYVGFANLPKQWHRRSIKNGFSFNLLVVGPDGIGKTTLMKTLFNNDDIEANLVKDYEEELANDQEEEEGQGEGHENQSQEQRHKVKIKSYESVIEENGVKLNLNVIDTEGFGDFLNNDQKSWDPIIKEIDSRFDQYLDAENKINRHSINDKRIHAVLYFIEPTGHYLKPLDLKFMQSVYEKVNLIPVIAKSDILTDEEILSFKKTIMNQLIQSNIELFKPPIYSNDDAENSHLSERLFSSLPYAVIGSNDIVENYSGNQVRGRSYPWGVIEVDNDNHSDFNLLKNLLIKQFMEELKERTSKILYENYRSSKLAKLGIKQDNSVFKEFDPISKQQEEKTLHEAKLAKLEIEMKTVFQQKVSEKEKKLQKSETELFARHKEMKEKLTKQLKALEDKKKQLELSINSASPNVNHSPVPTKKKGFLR
Chain of Cdc11(E294C)-capped, otherwise Cys-less septin hetero-octamer (Cdc11-Cdc12-Cdc3-Cdc10-Cdc10-Cdc3-Cdc12-Cdc11) (S. cerevisiae) (P25342 whole entry C266S, chain 4 of 4, further chain): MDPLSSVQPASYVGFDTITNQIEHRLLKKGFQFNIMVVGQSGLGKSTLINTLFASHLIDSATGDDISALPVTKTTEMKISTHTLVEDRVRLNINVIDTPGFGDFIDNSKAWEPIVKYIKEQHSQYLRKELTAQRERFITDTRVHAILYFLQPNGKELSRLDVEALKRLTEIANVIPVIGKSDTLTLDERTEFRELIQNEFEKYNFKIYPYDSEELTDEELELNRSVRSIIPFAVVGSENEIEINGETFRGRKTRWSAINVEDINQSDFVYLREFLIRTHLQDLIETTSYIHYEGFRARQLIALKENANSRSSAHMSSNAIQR
Chain of Shs1(E344C ΔCTE)-capped, otherwise Cys-less septin hetero-octamer (S. cerevisiae) (Q07657 1-348 C29V/C148S/E344C, chain 1 of 4): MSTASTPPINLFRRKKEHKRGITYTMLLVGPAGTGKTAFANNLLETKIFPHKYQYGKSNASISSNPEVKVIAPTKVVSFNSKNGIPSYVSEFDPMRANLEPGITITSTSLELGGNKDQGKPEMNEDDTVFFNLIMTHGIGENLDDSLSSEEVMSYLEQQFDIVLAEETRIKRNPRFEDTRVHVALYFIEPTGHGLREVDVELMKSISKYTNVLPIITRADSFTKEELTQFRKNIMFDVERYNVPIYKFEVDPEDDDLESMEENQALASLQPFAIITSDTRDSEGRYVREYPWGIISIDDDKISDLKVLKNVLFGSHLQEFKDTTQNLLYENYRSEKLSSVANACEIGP
Chain of Shs1(E344C ΔCTE)-capped, otherwise Cys-less septin hetero-octamer (S. cerevisiae) (P32468 whole entry C40A/C278S, chain 2 of 4, further chain): as the sequence (P32468 whole entry C40A/C278S, chain 2 of 4, further chain) above
Chain of Shs1(E344C ΔCTE)-capped, otherwise Cys-less septin hetero-octamer (S. cerevisiae) (P32457 other isoform, or with tags, fused parts or gaps E344C, chain 3 of 4, further chain): as the sequence (P32457 other isoform, or with tags, fused parts or gaps E294C, chain 3 of 4, further chain) above
Chain of Shs1(E344C ΔCTE)-capped, otherwise Cys-less septin hetero-octamer (S. cerevisiae) (P25342 whole entry C266S, chain 4 of 4, further chain): as the sequence (P25342 whole entry C266S, chain 4 of 4, further chain) above
Chain of Shs1(E344C)-capped, otherwise Cys-less septin hetero-octamer (Shs1-Cdc12-Cdc3-Cdc10-Cdc10-Cdc3-Cdc12-Shs1) (S. cerevisiae) (Q07657 whole entry C29V/C148S/E344C, chain 1 of 4): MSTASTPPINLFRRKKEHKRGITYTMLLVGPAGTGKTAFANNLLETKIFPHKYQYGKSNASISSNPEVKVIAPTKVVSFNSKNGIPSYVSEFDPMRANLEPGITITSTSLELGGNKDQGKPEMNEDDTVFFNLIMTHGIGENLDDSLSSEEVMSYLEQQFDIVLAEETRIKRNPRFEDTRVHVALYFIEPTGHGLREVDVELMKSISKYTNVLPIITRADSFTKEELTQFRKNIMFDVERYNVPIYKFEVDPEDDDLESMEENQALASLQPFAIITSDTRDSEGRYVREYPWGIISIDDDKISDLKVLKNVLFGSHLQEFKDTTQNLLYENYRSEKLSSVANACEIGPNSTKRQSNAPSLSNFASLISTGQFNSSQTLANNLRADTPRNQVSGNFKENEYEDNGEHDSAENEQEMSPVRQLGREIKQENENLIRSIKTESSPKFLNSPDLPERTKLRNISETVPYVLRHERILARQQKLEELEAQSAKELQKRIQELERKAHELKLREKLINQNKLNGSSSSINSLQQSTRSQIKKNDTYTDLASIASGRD
Chain of Shs1(E344C)-capped, otherwise Cys-less septin hetero-octamer (Shs1-Cdc12-Cdc3-Cdc10-Cdc10-Cdc3-Cdc12-Shs1) (S. cerevisiae) (P32468 whole entry C40A/C278S, chain 2 of 4, further chain): as the sequence (P32468 whole entry C40A/C278S, chain 2 of 4, further chain) above
Chain of Shs1(E344C)-capped, otherwise Cys-less septin hetero-octamer (Shs1-Cdc12-Cdc3-Cdc10-Cdc10-Cdc3-Cdc12-Shs1) (S. cerevisiae) (P32457 other isoform, or with tags, fused parts or gaps E344C, chain 3 of 4, further chain): as the sequence (P32457 other isoform, or with tags, fused parts or gaps E294C, chain 3 of 4, further chain) above
Chain of Shs1(E344C)-capped, otherwise Cys-less septin hetero-octamer (Shs1-Cdc12-Cdc3-Cdc10-Cdc10-Cdc3-Cdc12-Shs1) (S. cerevisiae) (P25342 whole entry C266S, chain 4 of 4, further chain): as the sequence (P25342 whole entry C266S, chain 4 of 4, further chain) above

Regarding “Cdc11(E294C ΔCTE)-capped, otherwise Cys-less septin hetero-octamer (from UniProt P32458 1-305; P32468 1-407; P32457 1-520; P25342 1-322) (complex)”, the Kd in experiment [1] is 22.8 nM; in experiment [2], 22.2 nM; in experiment [3], 24.1 nM; in experiment [4] it was 17.7 nM.

These data come from PMC4653696.
